These results are taken from patent publication US20240059799A1 (Pfizer, published 2024).

The chains are these.
B1: TL1A-0002 (antibody, human IgG1, kappa, V domains shown)
VH: QVQLVQSGAEVKKPGASVKVSCKASGYDFTYYGISWVRQAPGQGLEWMGWISTYNGNTHYARMLQGRVTMTTDTSTRTAYMELRSLRSDDTAVYYCARENYYGSGAYRGGMDVWGQGTTVTVSS
VL: EIVLTQSPATLSLSPGERATLSCRASQSVSSYLAWYQQKPGQAPRLLIYDASNRATGIPARFSGSGSGTDFTLTISSLEPEDFAVYYCQQRSNWPWTFGQGTKVEIKR
notes: human IgG1 effector-function-minimized / human kappa; also called parental TL1A-0002 antibody
B2: TL1A-0252 (antibody, V domains shown)
VH: QVQLVQSGAEVKKPGASVKVSCKASGYDFTYYGISWVRQAPGQGLEWMGWISTYNTNTHYAPSLQGRVTMTTDTSTSTAYMELRSLRSDDTAVYYCARESYYGSGAFRGGMDVWGQGTTVTVSS
VL: DIQMTQSPSSLSASVGDRVTITCRASQSVSSYLAWYQQKPGKAPKLLIYDASNRATGVPSRFSGSGSGTDFTLTISSLQPEDFATYYCQQRSNWPWTFGQGTKVEIKR
notes: IgG1 effector-minimized/kappa
B3: TL1A-0251 (antibody, V domains shown)
VH: QVQLVQSGAEVKKPGASVKVSCKASGYDFTYYGISWVRQAPGQGLEWMGWISTYNTVTHYAPSLQGRVTMTTDTSTSTAYMELRSLRSDDTAVYYCARESYYGSGAHRGGMDVWGQGTTVTVSS
VL: DIQMTQSPSSLSASVGDRVTITCRASQSVSSYLAWYQQKPGKAPKLLIYDASNRATGVPSRFSGSGSGTDFTLTISSLQPEDFATYYCQQRSNWPWTFGQGTKVEIKR
notes: IgG1 effector-minimized/kappa
B4: TL1A-0243 (antibody, V domains shown)
VH: QVQLVQSGAEVKKPGASVKVSCKASGYDFTYYGISWVRQAPGQGLEWMGWISTYNDNTHYAPSLQGRVTMTTDTSTSTAYMELRSLRSDDTAVYYCARESYYGSGAHRGGMDVWGQGTTVTVSS
VL: DIQMTQSPSSLSASVGDRVTITCRASQSVSSYLAWYQQKPGKAPKLLIYDASNRATGVPSRFSGSGSGTDFTLTISSLQPEDFATYYCQQRSNWPWTFGQGTKVEIKR
notes: IgG1 effector-minimized/kappa
B5: TL1A-0248 (antibody, V domains shown)
VH: QVQLVQSGAEVKKPGASVKVSCKASGYDFTYYGISWVRQAPGQGLEWMGWISTYNTGTHYAQKLQGRVTMTTDTSTSTAYMELRSLRSDDTAVYYCARESYYGSGAFRGGMDVWGQGTTVTVSS
VL: DIQMTQSPSSLSASVGDRVTITCRASQSVSSYLAWYQQKPGKAPKLLIYDASNRATGVPSRFSGSGSGTDFTLTISSLQPEDFATYYCQQRSNWPWTFGQGTKVEIKR
notes: IgG1 effector-minimized/kappa
B6: TL1A-0245 (antibody, V domains shown)
VH: QVQLVQSGAEVKKPGASVKVSCKASGYDFTYYGISWVRQAPGQGLEWMGWISTYNDNTHYAQKLQGRVTMTTDTSTSTAYMELRSLRSDDTAVYYCARESYYGSGAHRGGMDVWGQGTTVTVSS
VL: DIQMTQSPSSLSASVGDRVTITCRASQSVSSYLAWYQQKPGKAPKLLIYDASNRATGVPSRFSGSGSGTDFTLTISSLQPEDFATYYCQQRSNWPWTFGQGTKVEIKR
notes: IgG1 effector-minimized/kappa
B7: TL1A-0189 (antibody, human IgG1, kappa, V domains shown)
VH: QVQLVQSGAEVKKPGASVKVSCKASGYDFTYYGISWVRQAPGQGLEWMGWISTYNGNTHYARMLQGRVTMTTDTSTSTAYMELRSLRSDDTAVYYCARENYYGSGAYRGGMDVWGQGTTVTVSS
VL: DIQMTQSPSSLSASVGDRVTITCRASQSVSSYLAWYQQKPGKAPKLLIYDASNRATGVPSRFSGSGSGTDFTLTISSLQPEDFATYYCQQRSNWPWTFGQGTKVEIKR
notes: IgG1 effector-minimized/kappa
B8: TL1A-0042 (antibody, human IgG1, kappa, V domains shown)
VH: QVQLVQSGAEVKKPGASVKVSCKASGYDFTYYGISWVRQAPGQGLEWMGWISTYNGNTHYARMLQGRVTMTTDTSTRTAYMELRSLRSDDTAVYYCARENYYGSGAYRGGMDVWGQGTTVTVSS
VL: DIQMTQSPSSLSASVGDRVTITCRASQSVSSYLAWYQQKPGKAPKLLIYDASNRATGVPSRFSGSGSGTDFTLTISSLQPEDFATYYCQQRSNWPWTFGQGTKVEIKR
notes: TL1A-0002 heavy chain with light chain CDRs grafted onto IGKV1-39*01; human IgG1 effector-function-minimized / human kappa
B9: TL1A-0246 (antibody, V domains shown)
VH: QVQLVQSGAEVKKPGASVKVSCKASGYDFTYYGISWVRQAPGQGLEWMGWISTYNTGTHYAPSLQGRVTMTTDTSTSTAYMELRSLRSDDTAVYYCARESYYGSGAFRGGMDVWGQGTTVTVSS
VL: DIQMTQSPSSLSASVGDRVTITCRASQSVSSYLAWYQQKPGKAPKLLIYDASNRATGVPSRFSGSGSGTDFTLTISSLQPEDFATYYCQQRSNWPWTFGQGTKVEIKR
notes: IgG1 effector-minimized/kappa
B10: TL1A-0247 (antibody, V domains shown)
VH: QVQLVQSGAEVKKPGASVKVSCKASGYDFTYYGISWVRQAPGQGLEWMGWISTYNTGTHYAPSLQGRVTMTTDTSTSTAYMELRSLRSDDTAVYYCARESYYGSGAHRGGMDVWGQGTTVTVSS
VL: DIQMTQSPSSLSASVGDRVTITCRASQSVSSYLAWYQQKPGKAPKLLIYDASNRATGVPSRFSGSGSGTDFTLTISSLQPEDFATYYCQQRSNWPWTFGQGTKVEIKR
notes: IgG1 effector-minimized/kappa
B11: TL1A-0253 (antibody, V domains shown)
VH: QVQLVQSGAEVKKPGASVKVSCKASGYDFTYYGISWVRQAPGQGLEWMGWISTYNTNTHYAPSLQGRVTMTTDTSTSTAYMELRSLRSDDTAVYYCARESYYGSGAHRGGMDVWGQGTTVTVSS
VL: DIQMTQSPSSLSASVGDRVTITCRASQSVSSYLAWYQQKPGKAPKLLIYDASNRATGVPSRFSGSGSGTDFTLTISSLQPEDFATYYCQQRSNWPWTFGQGTKVEIKR
notes: IgG1 effector-minimized/kappa
B12: TL1A-0244 (antibody, V domains shown)
VH: QVQLVQSGAEVKKPGASVKVSCKASGYDFTYYGISWVRQAPGQGLEWMGWISTYNDNTHYAQKLQGRVTMTTDTSTSTAYMELRSLRSDDTAVYYCARESYYGSGAFRGGMDVWGQGTTVTVSS
VL: DIQMTQSPSSLSASVGDRVTITCRASQSVSSYLAWYQQKPGKAPKLLIYDASNRATGVPSRFSGSGSGTDFTLTISSLQPEDFATYYCQQRSNWPWTFGQGTKVEIKR
notes: IgG1 effector-minimized/kappa
B13: TL1A-0249 (antibody, V domains shown)
VH: QVQLVQSGAEVKKPGASVKVSCKASGYDFTYYGISWVRQAPGQGLEWMGWISTYNTGTHYAQKLQGRVTMTTDTSTSTAYMELRSLRSDDTAVYYCARESYYGSGAHRGGMDVWGQGTTVTVSS
VL: DIQMTQSPSSLSASVGDRVTITCRASQSVSSYLAWYQQKPGKAPKLLIYDASNRATGVPSRFSGSGSGTDFTLTISSLQPEDFATYYCQQRSNWPWTFGQGTKVEIKR
notes: IgG1 effector-minimized/kappa
B14: TL1A-0242 (antibody, V domains shown)
VH: QVQLVQSGAEVKKPGASVKVSCKASGYDFTYYGISWVRQAPGQGLEWMGWISTYNDNTHYAPSLQGRVTMTTDTSTSTAYMELRSLRSDDTAVYYCARESYYGSGAFRGGMDVWGQGTTVTVSS
VL: DIQMTQSPSSLSASVGDRVTITCRASQSVSSYLAWYQQKPGKAPKLLIYDASNRATGVPSRFSGSGSGTDFTLTISSLQPEDFATYYCQQRSNWPWTFGQGTKVEIKR
notes: IgG1 effector-minimized/kappa

The assay concerns the target T1, recombinant human TL1A (human, UniProt O95150 71-251).
T1 construct: The ELISA method says only 'recombinant TL1A' coated on plates; homotrimeric cytokine; also called TNFSF15; recombinant TL1A
T1 chain: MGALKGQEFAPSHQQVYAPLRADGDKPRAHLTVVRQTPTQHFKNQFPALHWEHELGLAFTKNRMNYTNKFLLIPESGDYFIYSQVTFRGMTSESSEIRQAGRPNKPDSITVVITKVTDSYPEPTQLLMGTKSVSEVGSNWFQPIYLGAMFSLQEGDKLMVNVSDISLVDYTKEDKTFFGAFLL
The experiment in a line: competition ELISA on coated recombinant TL1A; competitor biotinylated TL1A-0002. How it is done: For this competition ELISA assay procedure, 96-well high binding plates (Corning, product number 3590) were coated with 1 μg/mL recombinant TL1A in 100 μL/well in Phospate Buffered Saline (PBS) overnight at 4° C. Plates were then blocked in PBS+0.02% casein solution and washed with PBS+0.05% Tween-20 following standard ELISA protocol. […] Plates were washed with PBS+0.05% Tween-20 following standard ELISA protocol, and Streptavidin-HRP (Southern Biotech, product number 7100-05) diluted to 1:10,000 in assay buffer was added to plates and incubated for 25-30 minutes at room temperature. Next, the plates were washed with PBS+0.05% Tween-20 following standard ELISA protocol, and then TMB substrate (BioFX Laboratories, catalog number TMBW-0100-01) was added to plates. Reactions were stopped after approximately 5 minutes by adding 0.18 M ortho-phosphoric acid to each well and absorbance was read at 450 nm.
For orientation: An ELISA detects its analyte on a solid surface through an enzyme-linked reagent.
As for B1, the “Bioactivity relative to TL1A-0002” value is 1 fold and the IC50 turned out to be 5 nM.
As for B2, the “Bioactivity relative to TL1A-0002” value is 2.7 fold and the IC50 turned out to be 13.5 nM.
On the same counts, the results for B3 are 3.2 fold and 16.2 nM.
On the same counts, the results for B4 are 2.9 fold and 14.5 nM.
For B5, in that order: 3.2 fold and 16 nM.
As to B6, the “Bioactivity relative to TL1A-0002” value was 3.2 fold and the IC50 came out at 16.2 nM.
For the molecule B7, the “Bioactivity relative to TL1A-0002” value amounted to 0.8 fold and the IC50 was 3.8 nM.
On the same counts, the results for B8 are 0.8 fold and 4.2 nM.
Turning to B9, the “Bioactivity relative to TL1A-0002” value came to 2.6 fold and the IC50 worked out at 13.3 nM.
For B10, in that order: 2.4 fold and 12.2 nM.
In the case of B11, the “Bioactivity relative to TL1A-0002” value was 2.7 fold and the IC50 amounted to 13.4 nM.
On the same counts, the results for B12 are 3.5 fold and 17.6 nM.
For B13, in that order: 3.1 fold and 15.7 nM.
On the same counts, the results for B14 are 3.2 fold and 16.2 nM.

Usually IC50 stands for the concentration that inhibits the measured activity by half.
